B1: Mouse neonatal Fc receptor (mFcRn) (receptor)
chain 1: SETRPPLMYHLTAVSNPSTGLPSFWATGWLGPQQYLTYNSLRQEADPCGAWMWENQVSWYWEKETTDLKSKEQLFLEALKTLEKILNGTYTLQGLLGCELASDNSSVPTAVFALNGEEFMKFNPRIGNWTGEWPETEIVANLWMKQPDAARKESEFLLNSCPERLLGHLERGRRNLEWKEPPSMRLKARPGNSGSSVLTCAAFSFYPPELKFRFLRNGLASGSGNCSTGPNGDGSFHAWSLLEVKRGDEHHYQCQVEHEGLAQPLTVDLDSSARSS
chain 2: IQKTPQIQVYSRHPPENGKPNILNCYVTQFHPPHIEIQMLKNGKKIPKVEMSDMSFSKDWSFYILAHTEFTPTETDTYACRVKHASMAEPKTVYWDRDM

What was measured:
[1] = biological target: Wild-type human IgG1 Fc (Fc^WT) (human, N-linked glycan at N297, predominantly fucosylated agalactosylated or monogalactosylated); test: SPR
[2] = biological target: B1; test: SPR

Kd [1]	Kd [2]	Binder
70 nM		B1
	0.27 nM	Human IgG1 Fc bearing the Abdeg mutations (Fc^Abdeg, efgartigimod) (domain or fragment) DKTHTCPPCPAPELLGGPSVFLFPPKPKDTLYITREPEVTCVVVDVSHEDPEVKFNWYVDGVEVHNAKTKPREEQYNSTYRVVSVLTVLHQDWLNGKEYKCKVSNKALPAPIEKTISKAKGQPREPQVYTLPPSRDELTKNQVSLTCLVKGFYPSDIAVEWESNGQPENNYKTTPPVLDSDGSFFLYSKLTVDKSRWQQGNVFSCSVMHEALKFHYTQKSLSLSPGK
